According to patent US20170313769A1 (Pfizer, published 2017):

Assays:
[1] = target: T1, Human IFNβ (mature human interferon beta) (human, UniProt P01574 22-187); experiment: cell-based or functional assay
Rabbit IFNβ = target: T2, Rabbit IFNβ (rabbit); experiment: plate ELISA, rabbit IFNβ coated at 10 ng/mL
T2 chain: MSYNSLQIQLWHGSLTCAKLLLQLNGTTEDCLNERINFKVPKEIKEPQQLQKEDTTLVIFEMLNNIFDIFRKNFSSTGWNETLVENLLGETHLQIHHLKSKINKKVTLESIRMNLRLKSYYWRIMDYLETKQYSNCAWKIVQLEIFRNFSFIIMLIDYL

Rat IFNβ = target: T3, Rat IFNβ (rat, UniProt P70499 22-184); experiment: plate ELISA, rat IFNβ coated at 5 µg/mL
T3 sequence: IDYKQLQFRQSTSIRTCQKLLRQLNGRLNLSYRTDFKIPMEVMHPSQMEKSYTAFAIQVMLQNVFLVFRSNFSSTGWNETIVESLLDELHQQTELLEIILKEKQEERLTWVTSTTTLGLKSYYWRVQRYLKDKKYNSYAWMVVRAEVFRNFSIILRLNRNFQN

Cynomolgus monkey IFNβ [2] = target: T4, Cynomolgus monkey IFNβ (cynomolgus monkey, UniProt O77812 22-187); experiment: ELISA (summary value); cynomolgus monkey IFNβ
T4 construct: also called cyno-IFNβ

[3] = target: T1, Human IFNβ (mature human interferon …); experiment: SPR, Biacore T200; antibody amine-coupled on CM5 chip, human IFNβ as analyte, 1:1 model
[4] = target: T1, Human IFNβ (mature human interferon …); experiment: cell-based or functional assay; remark: listed apart in the source
Cynomolgus monkey IFNβ [5] = target: T4, Cynomolgus monkey IFNβ; experiment: plate ELISA, cynomolgus IFNβ coated at 5 µg/mL, antibody titrated from 30 nM
Human IFNγ = target: T5, Human IFNγ (human, UniProt P01579 24-166, limits assumed); experiment: plate ELISA, IFNγ coated at 5 µg/mL
T5 construct: also called IFNγ (type II)
T5 sequence (looked up): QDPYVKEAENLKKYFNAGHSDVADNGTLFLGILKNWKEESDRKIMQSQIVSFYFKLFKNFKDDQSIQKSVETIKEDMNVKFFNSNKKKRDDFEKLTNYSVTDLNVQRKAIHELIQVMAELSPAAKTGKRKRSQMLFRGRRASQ

[6] = target: T1, Human IFNβ (mature human interferon …); experiment: Octet (BLI) response rank; method not described
[7] = target: T1, Human IFNβ (mature human interferon …); experiment: SPR (affinity maturation); after affinity maturation (four light chain mutations)
Human IFNω = Human IFNω (human, UniProt P05000 24-195); experiment: plate ELISA, human IFNω coated at 5 µg/mL
Mouse IFNβ = Mouse IFNβ (mouse, UniProt P01575 22-182); experiment: plate ELISA, mouse IFNβ coated at 1 µg/mL
[8] = target: T1, Human IFNβ (mature human interferon …); experiment: ELISA (summary value); human IFNβ
CID1286 = target: T6, CID1286 (human (IFNβ with IFNα sequence inserted), UniProt P01574 22-187); experiment: cell-based or functional assay
T6 chain: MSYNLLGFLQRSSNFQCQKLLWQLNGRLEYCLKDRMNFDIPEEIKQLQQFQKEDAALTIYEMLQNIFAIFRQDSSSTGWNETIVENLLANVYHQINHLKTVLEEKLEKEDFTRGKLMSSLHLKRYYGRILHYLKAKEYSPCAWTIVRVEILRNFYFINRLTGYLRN

CID1280 = target: T7, CID1280 (human (IFNβ with IFNα sequence inserted), UniProt P01574 22-187); experiment: cell-based or functional assay
T7 chain: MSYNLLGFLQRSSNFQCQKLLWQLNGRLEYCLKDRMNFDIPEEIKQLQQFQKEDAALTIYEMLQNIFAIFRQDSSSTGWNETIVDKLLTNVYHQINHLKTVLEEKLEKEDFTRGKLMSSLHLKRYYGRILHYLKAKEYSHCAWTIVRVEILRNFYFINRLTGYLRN

CID1283 = target: T8, CID1283 (human (IFNβ with IFNα sequence inserted), UniProt P01574 22-187); experiment: cell-based or functional assay
T8 chain: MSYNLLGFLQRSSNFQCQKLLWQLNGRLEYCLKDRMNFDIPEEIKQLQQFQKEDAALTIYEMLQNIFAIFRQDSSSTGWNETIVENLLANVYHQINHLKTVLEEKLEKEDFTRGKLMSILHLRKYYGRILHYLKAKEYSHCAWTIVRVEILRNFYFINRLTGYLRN

[9] = target: T1, Human IFNβ (mature human interferon …); experiment: cell-based or functional assay; remark: listed apart in the source
CID1281 = target: T9, CID1281 (human (IFNβ with IFNα sequence inserted), UniProt P01574 22-187); experiment: cell-based or functional assay
T9 chain: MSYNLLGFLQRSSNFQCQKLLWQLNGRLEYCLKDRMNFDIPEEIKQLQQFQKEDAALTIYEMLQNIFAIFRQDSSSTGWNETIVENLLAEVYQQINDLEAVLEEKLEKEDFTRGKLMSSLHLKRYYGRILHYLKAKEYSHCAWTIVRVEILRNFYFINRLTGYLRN

CID1277 = target: T10, CID1277 (human (IFNβ with IFNα sequence inserted), UniProt P01574 22-187); experiment: cell-based or functional assay
T10 chain: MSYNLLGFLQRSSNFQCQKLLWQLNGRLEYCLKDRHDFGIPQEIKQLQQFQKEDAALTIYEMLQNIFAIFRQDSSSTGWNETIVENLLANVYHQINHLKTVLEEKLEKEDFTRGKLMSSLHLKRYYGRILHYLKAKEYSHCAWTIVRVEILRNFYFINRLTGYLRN

T4 sequence (O77812 22-187): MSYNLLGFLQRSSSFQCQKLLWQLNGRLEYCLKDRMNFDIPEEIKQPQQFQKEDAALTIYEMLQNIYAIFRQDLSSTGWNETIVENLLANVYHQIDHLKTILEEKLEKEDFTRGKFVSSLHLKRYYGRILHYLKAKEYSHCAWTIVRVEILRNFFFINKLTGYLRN
Chain of Human IFNω (P05000 24-195): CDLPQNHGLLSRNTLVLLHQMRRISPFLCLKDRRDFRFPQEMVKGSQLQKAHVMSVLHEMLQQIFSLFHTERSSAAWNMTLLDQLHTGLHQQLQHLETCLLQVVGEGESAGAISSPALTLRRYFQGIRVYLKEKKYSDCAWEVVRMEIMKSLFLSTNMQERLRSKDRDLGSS
Chain of Mouse IFNβ (P01575 22-182): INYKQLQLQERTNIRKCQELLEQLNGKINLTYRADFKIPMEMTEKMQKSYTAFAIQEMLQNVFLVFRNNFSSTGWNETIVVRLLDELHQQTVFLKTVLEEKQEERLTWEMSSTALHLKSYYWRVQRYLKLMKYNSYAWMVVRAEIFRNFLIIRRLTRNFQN

B1: CTI-AF1 (antibody, human IgG1, kappa, V domains shown)
VH: QVQLVQSGAEVKKPGSSVKVSCKASGYTFSRYWMHWVRQAPGQGLEWMGHIDPSDSYTYYNQKFKGRVTITADESTSTAYMELSSLRSEDTAVYYCARWDYGNLLFEYWGQGTLVTVSS
VL: DIQMTQSPSSLSASVGDRVTITCRTSQDIGNYLNWYQQKPGKAFKLLIYSTSRLHSGVPSRFSGSGSGTDFTLTISSLQPEDFATYYCQQGIILPITFGGGTKVEIKR
notes: Humanized IgG1; The C-terminal K of the heavy chain is printed as optional, '(K)'; also called anti-IFNβ antibody; humanized IgG1 antibody against interferon beta
- IC50, IFNβ induced luciferase activity in HEK293 ISRE-Luc cells [1]: 0.0288 nM
- IC50, M×A (M×1) gene expression in human dermal fibroblasts stimulated with recombinant IFNβ [1]: 0.0294 nM
- IC50, inhibition of IFNβ induced STAT1 phosphorylation in U937 cells (phosflow) [1]: 0.0298 nM
- IC50, neutralization of IFNβ induced STAT1 phosphorylation [1]: 0.0077 nM
- EC50 (Rabbit IFNβ): 2.95 nM
- binding result (Rat IFNβ): no binding
- EC50 (Cynomolgus monkey IFNβ [2]): 0.025 nM
- Kd [3]: 0.036 nM
- IC50 (pM) ISRE Neutralization [4]: 2 pM
- IC50 (pM) pSTAT1 Inhibition [4]: 4 pM
- EC50 (Cynomolgus monkey IFNβ [5]): 0.0247 nM
- binding result (Human IFNγ): no binding
- Response rank (Octet) [6]: 1 rank
- Kd [7]: 0.029 nM
- binding result (Human IFNω): no binding
- binding result (Mouse IFNβ): no binding
- EC50 [8]: 0.0153 nM
- IC50 (nM), neutralization of type I IFN-induced STAT1 phosphorylation (CID1286): 0.4 nM
- IC50 (nM), neutralization of type I IFN-induced STAT1 phosphorylation (CID1280): 47.7 nM
- IC50 (nM), neutralization of type I IFN-induced STAT1 phosphorylation (CID1283): 0.4 nM
- IC50 (nM), neutralization of type I IFN-induced STAT1 phosphorylation [9]: 0.3 nM
- IC50 (nM), neutralization of type I IFN-induced STAT1 phosphorylation (CID1281): 3280 nM
- IC50 (nM), neutralization of type I IFN-induced STAT1 phosphorylation (CID1277): 0.3 nM
